Data: patent US6686449B2, “Mutant presenilin 1 polypeptides” (Pharmacia & Upjohn Company, priority 2000, dated 2004)

Tests used:
[1] = test system: APP processing in H125.3-16 (APP695sw-KK) and H143.3-23 (APP695sw) HEK cells; assay: Transient transfection of constructs, Elisa of Aβ in conditioned media, HEK APP695sw cell lines; assay type: cell-based, human; conditions: 48 hours after transfection
Experimental: (§1) The construction of the cell lines used in this section has been described in U.S. Pat. No. 6,440,698. Transient transfections were carried out in 4 different cell lines: H125.3-16, N2A-APP, H143.3-23, and H167-11. The H125.3-16 cell line expresses human APP695 swedish mutant cDNA with a dilyine motif in HEK-293 cells, and the H 143.3-23 cell line expresses human APP695 swedish mutant cDNA in HEK-293 cells. The H167-1 1 cell line was developed using the same methods as the H125.3-16 and H143.3-23 cell lines, except the 167 construct DNA (pTRES-EGFP harboring the human APP695 V642F mutant cDNA containing a dilyine motif) was used. […]
(§2) Twenty-four hours prior to transfection, cells were plated at 6×10^5 cells per well of a six-well dish. […] Conditioned media was collected from the cells 48 hours after transfection and then analyzed by Elisa assay for levels of Aβ1-40 and Aβ1-42. […]

[2] = test system: APP processing in H167-11 HEK cells (APP695V642F-KK); assay: Transient transfection of constructs, Elisa of Aβ in conditioned media, H167-11 cell line; assay type: cell-based, human; conditions: 48 hours after transfection
Experimental: as §1, §2

B1: BACE: beta-secretase (Asp2) plasmid transfected into the cell lines (protein, UniProt P56817 46-501, looked up)
Beta-secretase 1: ETDEEPEEPGRRGSFVEMVDNLRGKSGQGYYVEMTVGSPPQTLNILVDTGSSNFAVGAAPHPFLHRYYQRQLSSTYRDLRKGVYVPYTQGKWEGELGTDLVSIPHGPNVTVRANIAAITESDKFFINGSNWEGILGLAYAEIARPDDSLEPFFDSLVKQTHVPNLFSLQLCGAGFPLNQSEVLASVGGSMIIGGIDHSLYTGSLWYTPIRREWYYEVIIVRVEINGQDLKMDCKEYNYDKSIVDSGTTNLRLPKKVFEAAVKSIKAASSTEKFPDGFWLGEQLVCWQAGTTPWNIFPVISLYLMGEVTNQSFRITILPQQYLRPVEDVATSQDDCYKFAISQSSTGTVMGAVIMEGFYVVFDRARKRIGFAVSACHVHDEFRTAAVEGPFVTLDMEDCGYNIPQTDESTLMTIAYVMAAICALFMLPLCLMVCQWRCLRCLRQQHDDFADDISLLK
[1]
  change of Aβ1-40 in conditioned media versus mock transfected cells: robust increase
  change of Aβ1-42 in conditioned media versus mock transfected cells: robust increase
[2]
  change of Aβ1-40 or Aβ1-42 versus mock transfected cells: increase
